Laboratory results published in publication PMC2704382 (Cell, 2009).
Values belong to the binder of their own block, whether it stands above or below them.

Target: GSK3β used in the surface plasmon resonance binding assays (UniProt P49841 1-420)
Experiment: SPR

GSK3β used in the surface plasmon resonance binding assays, sequence (P49841 whole entry): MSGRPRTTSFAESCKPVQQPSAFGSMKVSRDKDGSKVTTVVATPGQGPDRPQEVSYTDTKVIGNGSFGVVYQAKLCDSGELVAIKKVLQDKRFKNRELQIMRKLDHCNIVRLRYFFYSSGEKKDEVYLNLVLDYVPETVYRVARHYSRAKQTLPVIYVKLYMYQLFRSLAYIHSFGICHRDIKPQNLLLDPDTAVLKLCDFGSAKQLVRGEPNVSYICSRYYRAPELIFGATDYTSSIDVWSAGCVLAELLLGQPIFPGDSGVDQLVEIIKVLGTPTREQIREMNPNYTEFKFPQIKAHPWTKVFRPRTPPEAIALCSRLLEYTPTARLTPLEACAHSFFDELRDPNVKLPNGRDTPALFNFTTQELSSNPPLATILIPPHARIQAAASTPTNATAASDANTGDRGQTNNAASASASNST

- stoichiometry N: 2 peptide:protein
B1: DISCtide2 (15-mer peptide, mDISC1 amino acids 211 to 225) (peptide, UniProt Q811T9 211-225, looked up)
peptide: SFSFIQLSLGAAGER

- stoichiometry N: 2 peptide:protein
B2: DISCtide-1 (mDISC1 amino acids 195 to 238) (peptide, UniProt Q811T9 195-238, looked up)
peptide: PADIASLPGFQDTFTSSFSFIQLSLGAAGERGEAEGCLPSREAE
